Values of other authors in PMC2854688.
Where “and” joins values, the source holds several entries; their conditions need not be identical. Equal entries are not always repeated.

Assays:
[1] = target: eRF3 PAM2 peptide PAM2 (Homo sapiens) (UniProt P15170)
[2] = target: eRF3 overlapping PAM2 peptide PAM2 (Homo sapiens) (UniProt P15170)

Kd [1]: 3.9 µM and 3.1 µM | Kd [2]: 1300 nM
Substance: PABPC1 MLLE domain MLLE (from UniProt P11940)
